Laboratory results as given in patent US20030215453A1.

What was measured:
[1] = biological target: VpreB1 protein (Homo sapiens (Human)) (UniProt P12018); experiment: flow cytometry, 1 ug FITC-conjugated antibody on 1x10^6 HT cells (no detectable VpreB1 mRNA in Table 1; in effect a VpreB1-negative line)
[2] = biological target: VpreB1 protein (Homo sapiens (Human)) (UniProt P12018); experiment: flow cytometry, 1 ug FITC-conjugated antibody on 1x10^6 GA-10 cells (endogenous VpreB1)
[3] = biological target: VpreB1 protein (Homo sapiens (Human)) (UniProt P12018); experiment: flow cytometry, 1 ug FITC-conjugated antibody on 1x10^6 CA46 cells (endogenous VpreB1)

Chain of UniProt P12018 (P12018 20-145 limits assumed): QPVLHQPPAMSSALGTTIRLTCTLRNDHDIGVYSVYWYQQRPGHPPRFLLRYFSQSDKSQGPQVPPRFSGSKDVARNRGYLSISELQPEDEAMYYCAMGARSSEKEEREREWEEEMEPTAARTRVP

FITC-conjugated anti-VpreB1 monoclonal antibody (Serotec, Raleigh, N.C.)
% of cells surface labeled (gate M1) [1]: 3% | % of cells surface labeled (gate M1) [2]: 91% | % of cells surface labeled (gate M1) [3]: 69%
